{"source": "patent US20130071431A1", "about": "“Method for Preserving Polypeptides Using A Sugar and Polyethyleneimine” (Stabilitech Ltd., priority 2008, published 2013)", "key": {"[1]": {"experiment": "HRP activity assay (OPD/H2O2) after freeze-drying and heat-freeze cycles", "assay_type": "biochemical", "protocol": "Type IV horse radish peroxidase (HRP, Sigma-Aldrich) was diluted to 1 μg/ml in:\nThe PEI was obtained from Sigma (P3143, Mn 60,000). The PEI concentration was based on Mn. 10×100 μl volumes of each of the above solutions were prepared in 5 ml freeze-drying vials. Five replicates of each solution were freeze-dried from minus 32° C. over a 3 day cycle on a VirTis Advantage laboratory freeze-dryer using the protocol described in Example 6.\nOne vial from each solution of the liquid and dried samples was placed at 4° C. while the rest were frozen to −20° C. Samples from each of the liquid and dry solutions were subjected to 2, 4, and 6 heat-freeze cycles by removing them from the −20° C. freezer and placing them in an incubator set at 37° C. for 4 hours before replacing them in the freezer for 20 hrs 2, 4 and 6 times. 1 vial of each was retained at −20° C. as a control.\nWhen the cycling was completed all the samples, including the −20° C. and 4° C. maintained non-cycled controls were allowed to equilibrate to room temperature. The freeze-dried samples were then reconstituted with 100 μl/vial of deionised water at room temperature.\nTriplicate 10 μl samples were removed from each vial into wells of a flat bottomed ELISA plate (Nunc Maxisorb). To each well was then added 50 ul of a chromogen/substrate solution containing 0.4 mg/ml orthophenylene diamine (OPD) and 0.4 ul/ml 30% hydrogen peroxide (H2O2). Colour was allowed to develop before the reaction was stopped by the addition of 50 μl/well of 1M sulphuric acid (H2SO4). Absorbance was measured at 490 nm on a BioTek Synergy HT spectrophotometer and plotted as optical density (OD)."}, "[2]": {"experiment": "Beta-galactosidase assay with x-gal (Example 11)", "assay_type": "biochemical", "conditions": "1M Suc, 100 mM Raf", "protocol": "Excipients mixtures containing β-galactosidase were prepared according to the table below and vortexed. 10 units of β-galactosidase were added to each vial. 200 μl of the vortexed mixture was placed in each appropriately labelled 5 ml glass vials. PEI was obtained from Sigma (P3143, Mn 60,000).\nThe condenser chamber was −70° C. However there was no shelf control on the freeze-drying unit.\nFollowing freeze-drying, vials were reconstituted in 1 ml PBS. 100 μl of the resulting solution from each vial was added in duplicate (giving a total of 6 readings per excipient type) to each well of a flat bottom 96 well plate. The substrate x-gal was added as according to the manufacturer's instructions. Briefly, a stock solution of 20 mg/ml was made in DMSO and used at a 1 mg/ml working concentration. 100 μl was added to each well and the solution allowed to develop over 10 minutes. Following development, absorbance was measured at 630 nm on a synergy HT microplate. Background from blank wells was then subtracted from all the readings and results assessed using Prism Graphpad."}, "[3]": {"test_system": "HL60 cells (ERK1/2 phosphorylation)", "experiment": "HL60 cell stimulation assay, immunoblot of phosphorylated and total ERK1/2", "assay_type": "cell-based", "protocol": "A lyophilised sample of G-CSF was reconstituted to a concentration of 10 μg/ml. 160 μl of sucrose (1.82M) and 40 μl of raffinose (0.75M) were mixed with 50 μl of PEI (at a concentration of 150 nM based on Mn) to complete the preservation mixture. 50 μl of the reconstituted G-CSF solution was added and mixed well.\n100 μl aliquots of the final mixture was distributed into separate vials, and frozen or freeze-dried. Lyophilisation was carried out overnight as described in Example 1. […] Following incubation, the samples were reconstituted in RPMI prior to use.\nHL60 cells (shown to be mycoplasma free) were maintained in phenol red containing RPMI 1640 supplemented with 10% foetal bovine serum (FBS) and 2 mM glutamine. Cells were passaged weekly and medium was replenished every 2-3 days.\nFor stimulation assays HL60 cells were harvested and transferred to serum free medium at a density of 5×10^5 perwell of a 6 well plate. After 24 hours cells were stimulated for 5 minutes with the treatments shown in FIG. 2 (100 ng/ml G-CSF) and as indicated below:\nWhole cell extracts were resolved by SDS-PAGE and then transferred to nylon membranes, which were immunoprobed with antibodies against phosphorylated and total ERK1/2.\nCell suspensions were harvested (1000 rpm for 5 minutes) and washed with ice-cold PBS. Cell pellets were then lysed in extraction buffer (1% (v/v) Triton X100, […], pH 7.4, 5 mM EDTA, 50 mM NaCl, 50 mM sodium fluoride 2 mM Na3VO4 and 1 tablet of Complete™ inhibitor mix (Boehringer) per 10 ml of buffer) and homogenised by passage through a 26-gauge needle 6 times. The lysate was incubated on ice for 10 minutes then clarified by centrifugation (14,000 rpm for 10 minutes at 4° C.). The protein concentration was then quantified using the […] (Biorad, Inc.). Equal amounts of protein ([…]) were resolved by SDS-PAGE (10% gels) and then subjected to immunoblot analysis. Antigen-antibody interactions were detected with ECL (Pierce, UK)."}, "[4]": {"test_system": "HL-60 cells (phospho-ERK1/ERK2)", "experiment": "Cell-based ELISA of phosphorylated ERK1/ERK2 in HL-60 cells", "protocol": "Sucrose solution was prepared by adding 32 g sucrose powder to 32 ml PBS in a 50 ml falcon tube to give a final volume of 52 ml correlating to a final concentration of 61.54%. The solution was gently heated in a microwave to assist initial solvation but thereafter stored at 4° C.\nRaffinose solution was prepared by adding 4 g raffinose to 8 ml PBS in a 50 ml falcon tube to give a final volume of 10.2 ml corresponding to a final concentration of 39.2%. The solution was heated in a microwave to allow complete solvation.\nTo produce the final sugar mix, the sucrose and raffinose solutions described above were mixed in a 4:1 ratio. In practise, 32 ml sucrose solution was mixed with 8 ml raffinose solution. Once composed, sugar mix was stored at 4° C. and suffered no precipitation.\n6 g of PEI (50% w/v) was added to 500 ml PBS to make 6 mg/ml then diluted 1 in 10 to make 600 ug/ml. 600 μg/ml was then diluted to make 100 μg/ml solution of PEI. Serial 1 in 10 dilutions were prepared in PBS to a concentration of 0.01 μg/ml. For final concentrations of PEI refer to Table 2 below. Concentrations were calculated based on Mn.\n10 μg of 98% purified recombinant human G-CSF was reconstituted in 1 ml of PBS and diluted to 0.2 ng/ml in PBS (1 in 50,000 dilution), with a starting concentration 10 μg/ml. The G-CSF was aliquoted in 15 μl in Eppendorf tubes and stored at −20° C. for further use.\nFirst dilution: 10 μl of G-CSF at 10 μg/ml was added to 990 μl of PBS (1 in 100 dilutions). Second dilution: 10 μl of 1 in 100 dilutions of G-CSF was added to 4.99 ml of PBS (1 in 500 dilutions). For final concentrations of G-CSF refer to Table 2.\nExcipients were prepared according to Table 2. The final concentration of G-CSF was 0.2 ng/ml per vial. The excipients were vortexed to mix and 100 μl placed in each appropriately labelled 5 ml glass vial. Samples were freeze dried by the VirTis Advantage freeze dryer for approximately 3 days.\nSamples were prepared as 100 μl aliquots. Freeze-dried samples were resuspended in 100 μl of water.\nThe ELISA assay method described below was followed as general assay procedure of cell base assay's kit (R&D Systems).\nHL-60 cells were maintained in phenol red containing RPMI 1640 supplemented with 20% foetal bovine serum (FBS), Glutamine and Penicillin Streptomycin. HL-60 cells were passaged weekly and medium was replenished every 2-3 days.\nThe HL-60 (passage three) were transferred to a centrifuge tube and spun down at 1300 rpm, for 5 minutes at 4° C. The supernatant was poured off into a T-75 flask. The pellet was resuspended in 10 ml cold media.\n200 μl of cell suspension was transferred into an Eppendorf tube by using a 5 ml pipette. 100 μl of cell suspension was added to 100 μl of trypan blue into another Eppendorf tube and mixed. […]"}, "[5]": {"conditions": "native (untreated) G-CSF, 100 ng/ml, 5 minutes, serum starved HL60 cells"}}}
{"molecule": "HRP: Type IV horse radish peroxidase (HRP, Sigma-Aldrich)", "values": [{"measurement": "HRP activity (OD 490 nm)", "setting": "[1]; 1M Suc/100 mM Raf with or without 16.6 nM PEI versus PBS alone, all treatments and storage conditions", "value": "better maintained"}, {"measurement": "HRP activity after heat/freeze cycles", "setting": "[1]; excipient-treated samples, 6 heat/freeze cycles (37° C. 4 hours / −20° C. 20 hrs)", "value": "still maintained more HRP activity than unchallenged samples in PBS"}, {"measurement": "loss of HRP activity", "setting": "[1]; sugars, especially in combination with PEI, at the initial freeze-drying stage", "value": "significantly reduces loss of HRP activity"}]}
{"molecule": "β-galactosidase: β-galactosidase enzyme (Sigma)", "values": [{"measurement": "β-galactosidase activity following freeze-drying", "setting": "[2]; 13.3 μM PEI, compared to sucrose/raffinose alone", "value": "further enhanced"}, {"measurement": "β-galactosidase activity following freeze-drying", "setting": "[2]; no PEI, compared to PBS", "value": "high in sucrose/raffinose excipients compared to PBS"}]}
{"molecule": "G-CSF: human recombinant G-CSF (Sigma in Example 2; MBL JM-4094-10 in Examples 14 and 16) (protein, UniProt P09919 31-207, looked up) Granulocyte …: TPLGPASSLPQSFLLKCLEQVRKIQGDGAALQEKLVSECATYKLCHPEELVLLGHSLGIPWAPLSSCPSQALQLAGCLSQLHSGLFLYQGLLQALEGISPELGPTLDTLQLDVADFATTIWQQMEELGMAPALQPTQGAMPAFASAFQRRAGGVLVASHLQSFLEVSYRVLRHLAQP", "values": [{"measurement": "potency (ERK1/2 phosphorylation) compared to untreated G-CSF", "setting": "[3]; G-CSF mixed with excipient and freeze-dried (FIG. 2C)", "value": "maintain the potency"}, {"measurement": "activity (ERK1/2 phosphorylation) compared to untreated G-CSF", "setting": "[3]; G-CSF mixed with excipient then heat treated 37° C. for 72 hours, not freeze-dried (FIG. 2B)", "value": "marked loss of activity"}, {"measurement": "protection against heat inactivation (ERK1/2 phosphorylation)", "setting": "[3]; G-CSF mixed with excipient, freeze-dried and heat treated 37° C. for 72 hours (FIG. 2D)", "value": "protect G-CSF against heat inactivation"}, {"measurement": "ERK1/2 phosphorylation", "setting": "[3]; [5]", "value": "enhance phosphorylation"}, {"measurement": "total ERK1/2 levels", "setting": "[3]; [5]", "value": "without any effect"}, {"measurement": "level of phosphorylated ERK1/ERK2", "setting": "[4]; 1M Suc, 0.1M Raf with 1.6 μM, 0.16 μM or 0.016 μM PEI, freeze dried, heat treated at 56° C. (15 min, 1 h, 2 h, O/N)", "value": "higher level of phosphorylated ERK1/ERK2"}, {"measurement": "protection of G-CSF (ERK 1/2 phosphorylation)", "setting": "[4]; 1M Suc, 0.1M Raf with 1.6 μM, 0.16 μM or 0.016 μM PEI, freeze dried, 37° C. or 56° C. for 1 week", "value": "protects and stabilises G-CSF"}, {"measurement": "efficacy (phosphorylated ERK1/ERK2)", "setting": "[4]; freeze-dried with high level of PEI, heat treated at 56° C.", "value": "greater efficacy"}, {"measurement": "protection of G-CSF (ERK 1/2 phosphorylation)", "setting": "[4]; sugars with PEI final concentration of 1.6 μM, freeze dried, 37° C. and 56° C. for 1 week", "value": "highest level of protection"}]}
